Laboratory results as given in patent EP1141254B1.

What was measured:
Assay in all cases: cell-based or functional assay
[1] = biological target: 980601 (BX): purified preparation of Danisco's new bacterial xylanase expressed in E. coli (Bacillus subtilis) (UniProt P18429)
[2] = biological target: 980903 (XM1): purified mutant of Bacillus sub. wild type xylanase expressed in E. coli
[3] = biological target: 980603 (Röhm): purified preparation of Frimond's Belase xylanase (identical to Röhm's) (Bacillus subtilis)

Sequence of endogenous endo-β-1,4-xylanase inhibitor from wheat flour (main, form in doubt): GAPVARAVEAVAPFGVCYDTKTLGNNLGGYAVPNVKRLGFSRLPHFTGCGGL
Sequence of endogenous endo-β-1,4-xylanase inhibitor from wheat flour (main, form in doubt): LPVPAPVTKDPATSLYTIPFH

For “endogenous endo-β-1,4-xylanase inhibitor from wheat flour”, the Inhibition, % (inhibitor extracted from flour 98002) [1] was 67%, the Inhibition, % (inhibitor extracted from flour 98026) [1] was 75% and the OD 590 in the inhibitor assay with inhibitor extract from flour 98026 (without inhibitor: 0.675) [1] was 0.165 OD 590. It also gave a Residual activity, % (inhibitor extract from flour 98026) [1] of 24.4%, a Rest act., % (average of flours 98002 and 98026) [1] of 29% and a Rest act., % (inhibitor extracted from flour 98002) [1] of 33%. For the same substance, the Rest act., % (inhibitor extracted from flour 98026) [1] was 25%, the Vmax from the Lineweaver-Burk plot of xylanase 980601 with and without inhibitor (relative OD 590) (relative OD 590) [1] was 1.19 and the residual activity of XM1 after incubation with flour extract, relative to that of XM2 [2] was 2.5 fold. It also gave an Inhibition, % (inhibitor extracted from flour 98002) [3] of 60.8%, an Inhibition, % (inhibitor extracted from flour 98026) [3] of 61.3% and a Rest act., % (average of flours 98002 and 98026) [3] of 39%. The Rest act., % (inhibitor extracted from flour 98002) [3] was 39.2% and the Rest act., % (inhibitor extracted from flour 98026) [3] was 38.7%.
